Laboratory results reported in article PMC6358717 (Proceedings of the National Academy of Sciences of the …, 2018).
Several values for one entry are separate records, joined by “and”; a condition that tells them apart may be missing. Identical values can stand only once. Values belong to the molecule of their own block, whether it stands above or below them.

How the values were obtained:
[1] = target: human GPIHBP1 coated on ELISA wells (human) (UniProt Q8IV16); assay: ELISA
crystal structure = target: the molecule itself; assay: crystal structure

human GPIHBP1 coated on ELISA wells (human), sequence (Q8IV16 21-151): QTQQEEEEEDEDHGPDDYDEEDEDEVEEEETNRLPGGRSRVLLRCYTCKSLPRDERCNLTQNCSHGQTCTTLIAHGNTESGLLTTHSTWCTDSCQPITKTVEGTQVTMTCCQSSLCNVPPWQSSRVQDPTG

percent reduction of binding against LPL-wt [1]: 79% and 85%
Molecule: FLAG-tagged human LPL-M404R (from UniProt P06858 28-475) (enzyme)

B1: human lipoprotein lipase harboring an R324A mutation (enzyme, UniProt P06858 28-475, looked up)
chain: ADQRRDFIDIESKFALRTPEDTAEDTCHLIPGVAESVATCHFNHSSKTFMVIHGWTVTGMYESWVPKLVAALYKREPDSNVIVVDWLSRAQEHYPVSAGYTKLVGQDVARFINWMEEEFNYPLDNVHLLGYSLGAHAAGIAGSLTNKKVNRITGLDPAGPNFEYAEAPSRLSPDDADFVDVLHTFTRGSPGRSIGIQKPVGHVDIYPNGGTFQPGCNIGEAIRVIAERGLGDVDQLVKCSHERSIHLFIDSLLNEENPSKAYRCSSKEAFEKGLCLSCRKNRCNNLGYEINKVRAKASSKMYLKTRSQMPYKVFHYQVKIHFSGTESETHTNQAFEISLYGTVAESENIPFTLPEVSTNKTYSFLIYTEVDIGELLMLKLKWKSDSYFSWSDWWSSPGFAIQKIRVKAGETQKKVIFCSREKVSHLQKGKAPAVFVKCHDKSLNKKSG
modifications: N-linked glycans at N70 and N386
binding result (crystal structure): binds
